For data set [1], the system named is trypsin and chymotrypsin. The data set is described as follows: Trypsin + chymotrypsin assay (pNA release, absorbance at 405 nm). The format is biochemical. The note with it: for absorbance increase at 405 nm (pNA release): trypsin + chymotrypsin. How it is done:
Stock solutions of enzymes were prepared by dissolving trypsin (60 mg/ml) in 1 mM HCl and chymotrypsin (60 mg/ml) in pH 7.4 0.035M HEPES+0.1M NaCl. The peptide substrate, (Ac-AAF)K-pNA, was dissolved in DMSO to make a 1 mM stock solution.
(§1) To wells in a 96-well plate, 87.5 μL pH 7.4 0.035M HEPES+0.1M NaCl and 2.5 μL peptide substrate were added. Absorbance was measured using a plate reader at 405 nm. Then, 5 μL trypsin and 5 μL chymotrypsin were added to the wells, and absorbance was measured at pre-determined time points. Absorbance values were subtracted from initial reading of only buffer and peptide. When testing only one enzyme, 5 μL buffer were added to keep total volume per well at 100 μL. All conditions prepared and measured in triplicate.
as §1, with “Stock solutions of enzymes were prepared by dissolving trypsin (60 mg/ml) in 1 mM HCl and chymotrypsin (60 mg/ml) in pH 7.4 0.035M HEPES+0.1M NaCl. The peptide substrate, (Ac-AAF)K-pNA, was dissolved in DMSO to make a 1 mM stock solution. To” for “To”, “were” for “prepared and”

The next data set has as its system caspase 8 and trypsin. The data set is described as follows: Caspase 8 + trypsin assay (pNA release, absorbance at 405 nm). The note with it: for cleavage by caspase 8 (absorbance increase): caspase 8 only, commercial single enzyme substrates. In kind it is biochemical. As for the experimental part:
(§2) Caspase 3 was taken directly from stock solution containing 1000 U/μL. A stock solution of trypsin was prepared by dissolving the enzyme (5 mg/ml) in 1 mM HCl. The peptide substrates were dissolved in DMSO to make 10 mM solutions. These were then diluted to 2.5 mM with pH 7.5 0.1 M HEPES containing 10 mM DTT, 2 mM EDTA, and 10% v/v glycerol. In a 96-well plate, 84 μL of buffer and 5 μL peptide were mixed together before measuring the absorbance at 405 nm to serve as a blank. 1 μL caspase-3 was added, and the plate was incubated at 23° C. for 12-24 hours and absorbance was measured again. Then, 5 μL trypsin were added to the well and absorbance measurements were taken at pre-determined time points. All conditions prepared and measured in triplicate. The same protocol was used for caspase 8 assays, adjusting peptide substrate concentration as needed.

For the next data set, the system named is caspase 3 and trypsin. The data set is described as follows: Caspase 3 + trypsin assay (pNA release, absorbance at 405 nm). In kind it is biochemical. How it is done:
as §2

In a further data set the test system is papain and trypsin. As to the kind of experiment: Papain + trypsin assay (pNA release, absorbance at 405 nm). In kind it is biochemical. As for the experimental part: Papain was reconstituted in deionized water at a concentration of 1 mg/ml. A stock solution of trypsin was prepared by dissolving the enzyme (10 mg/ml) in 1 mM HCl. The peptide substrate, (AcFG)K-pNA was dissolved in DMSO to make a 5 mM solution. Separately, 3M NaCl and 20 mM EDTA+50 mM cysteine (pH 6.2) solutions were prepared with deionized water. In a 96-well plate, 5 μL substrate were mixed with 45 μL NaCl and 40 μL EDTA+cysteine solutions. Absorbance was measured at 405 nm to serve as a blank. Then, 5 μL of both enzyme solutions were added, and absorbance measurements were taken at pre-determined time points. All conditions were prepared and measured in quadruplicate.

Data set [2] concerns trypsin and chymotrypsin. As to the kind of experiment: pNA release assay of CAAK(F)-diamino-pNA. The format is biochemical. The note with it: 2 mM, trypsin and/or chymotrypsin, 90 minutes, 37° C. How it is done:
A stock solution of the CAAK(F)-diamino-pNA (SEQ ID NO: 4) was prepared in dimethyl sulfoxide (DMSO) to produce a 16.0 mg/mL solution. A 7.5 mg/mL stock solution of the trypsin was prepared in 50 mM NH4HCO3 buffer (pH=8.05). A 7.5 mg/mL stock solution of chymotrypsin was prepared in 50 mM NH4HCO3 buffer (pH=8.05).
A 96 well plate was used for monitoring the solutions at 405 nm using a plate reader. 20 μL of the peptide was combined with 62.0/66.6 μL of no enzyme, trypsin only, chymotrypsin only, or with both enzymes respectively. All solutions were diluted to a total volume of 200 μL using 50 mM NH4HCO3 (pH=8.05). Blanks were prepared by combining the enzymes with DMSO/buffer and their absorbances were subtracted from the cleavage conditions. Additionally, the residual signal from the peptide in the presence of no enzymes was also used as a blank and subtracted out from enzymatic conditions.

For data set [3] the following is noted: for stability of the linker: over the entire pH range. As for the experimental part:
The stabilities of these linkages were assessed by HPLC by monitoring the relative amount of Naltrexone versus the intact peptide-Naltrexone conjugate.

The mark [4] stands for this setting: 500 μM, caspase 8 for 24 hours before adding trypsin.

Entries after “also recorded” stand apart in the source; their conditions may differ. Where two headings read alike, the source gives them in different places. Square brackets hold non-standard residues; d marks the D form. Side chains are listed from the residue outwards. Peptide text beside a SMILES is read from it. * marks the point of attachment. ξ: configuration not given here. X2 = CN(CCN*)C(=S)Oc1ccc2c3c1O[C@H]1C(=O)CC[C@@]4(O)[C@@H](C2)N(CC2CC2)CC[C@]314; X1 = CN(CCN*)C(=O)Oc1ccc2c3c1OC1C(=O)CCC4(O)C(C2)N(CC2CC2)CCC314; X3 = CC(=O)N[C@@H](CCCCN*)C(=O)Nc1ccc([N+](=O)[O-])cc1; X4 = CN(CCN*)C(=O)Oc1ccc([N+](=O)[O-])cc1; Trt = c1ccc(C(c2ccccc2)(c2ccccc2)*)cc1; pNA = O=[N+]([O-])c1ccc(N*)cc1; ξF = NC(Cc1ccccc1)C(=O)O; Boc = CC(C)(C)OC(=O)*; ξK = NCCCCC(N)C(=O)O; ξC = NC(CS)C(=O)O; ξA = CC(N)C(=O)O

As to `CC(=O)N[C@@H](C)C(=O)N[C@@H](C)C(=O)N[C@@H](Cc1ccccc1)C(=O)NCCCC[C@H](NC(C)=O)C(=O)Nc1ccc([N+](=O)[O-])cc1` [(AcAAF)K-pNA], the “change in absorbance at 405 nm” value with trypsin and chymotrypsin [1] (100 μM peptide, chymotrypsin only) is “no change in absorbance”. For the same compound, the “absorbance increase at 405 nm” value with trypsin and chymotrypsin [1] (100 μM peptide, trypsin only) is recorded as 0.016±0.002 AU. Besides, the “absorbance increase at 405 nm (pNA release)” value was 0.070±0.002 AU in the data set with trypsin and chymotrypsin [1] (100 μM substrate); 0.147±0.002 AU in the data set on trypsin and chymotrypsin [1] (200 μM substrate); 0.039±0.003 AU in the data set with trypsin and chymotrypsin [1] (after five hours).
On to `CC(=O)N[C@@H](CCCCNC(=O)[C@H](CC(=O)O)NC(=O)[C@@H](NC(=O)[C@H](CCC(=O)O)NC(=O)[C@H](CC(=O)O)NC(C)=O)C(C)C)C(=O)Nc1ccc([N+](=O)[O-])cc1` [(AcDEVD)K-pNA], for which the absorbance increase entry with caspase 8 and trypsin (setting [4]) is on record as “did not result in a significant absorbance increase”; in the data set with caspase 3 and trypsin (trypsin or caspase 3 only) it was “no absorbance increase”. For the same compound, the “absorbance increase at 405 nm” value in the data set with caspase 3 and trypsin (125 μM substrate, first caspase-3 then trypsin, over 60 minutes) is on record as 0.1±0.006 AU. Besides, the “pNA release relative to release from commercial substrate AcDEVD-pNA” value in the data set on caspase 3 and trypsin (caspase 3 digestion) was found to be 83%.
`CC(=O)N[C@@H](CCCCNC(=O)[C@H](CC(=O)O)NC(=O)[C@H](CCC(=O)O)NC(=O)[C@@H](NC(=O)[C@H](CC(=O)O)NC(C)=O)C(C)C)C(=O)Nc1ccc([N+](=O)[O-])cc1` [(AcDVED)K-pNA] (Ac-DVED-X3): the pNA release entry in the data set on caspase 3 and trypsin (trypsin and caspase 3) is “no pNA release”.
Turning to `CC(=O)N[C@@H](Cc1ccccc1)C(=O)NCC(=O)NCCCC[C@H](NC(C)=O)C(=O)Nc1ccc([N+](=O)[O-])cc1` [(AcFG)K-pNA], in the data set with papain and trypsin (each enzyme separately (papain only or trypsin only)), the absorbance increase result is “no absorbance increase”. Besides, the pNA release result with papain and trypsin (papain and trypsin, varying substrate concentrations) is listed as “substrate dependent”.
For the compound `CC[C@H](C)[C@H](NC(C)=O)C(=O)N[C@@H](CCC(=O)O)C(=O)N1CCC[C@H]1C(=O)N[C@@H](CC(=O)O)C(=O)NCCCC[C@H](NC(C)=O)C(=O)Nc1ccc([N+](=O)[O-])cc1` [(AcIEPD)K-pNA] (Ac-IEPD-X3), the absorbance increase entry in the data set on caspase 8 and trypsin (setting [4]) is recorded as “did not result in a significant absorbance increase”; in the data set on caspase 8 and trypsin (caspase 8 and trypsin, initial experiments) it was “little to no absorbance increase”.
Consider `CC(=O)NC(CS)C(=O)NC(C)C(=O)NC(C)C(=O)NC(CCCCNC(=O)C(N)Cc1ccccc1)C(=O)NCCN(C)C(=O)Oc1ccc([N+](=O)[O-])cc1` (stereo not shown) [CAAK(F)-diamino-pNA] (Ac-CAAK(Phe)-X4; configuration not given here), for which the “theoretical pNA released” value in the data set with trypsin and chymotrypsin [2] stood at 55%.
Turning to `CC(=O)NC(CSC(c1ccccc1)(c1ccccc1)c1ccccc1)C(=O)NC(C)C(=O)NC(C)C(=O)NC(CCCCNC(=O)C(Cc1ccccc1)NC(=O)OC(C)(C)C)C(=O)NCCN(C)C(=O)Oc1ccc2c3c1OC1C(=O)CCC4(O)C(C2)N(CC2CC2)CCC314` (stereo not shown) [NPC] (Ac-C(Trt)AAK([Phe-Boc])-X1; configuration not given here), the “Percent Degradation, t = 0.5 hr” value in data set [3] (conjugate without pH buffer) is 0%; in data set [3] (pH 2) it was 6.00%; in data set [3] (pH 4), 3.50%; in data set [3] (pH 7), 1.50%; in data set [3] (pH 9), 5.56%; in data set [3] (pH 12), 7.03%. The “Percent Degradation, t = 24 hr” value in data set [3] (conjugate without pH buffer) is recorded as 0%; in data set [3] (pH 2), 12.30%; in data set [3] (pH 4), 2.89%; in data set [3] (pH 7), 3.62%; in data set [3] (pH 9), 5.17%; in data set [3] (pH 12) it was 6.94%. Also, the “stability of the linker” value in data set [3] is listed as “very good stability”.
In the case of `CC(=O)NC(CS)C(=O)NC(C)C(=O)NC(C)C(=O)NC(CCCCNC(=O)C(N)Cc1ccccc1)C(=O)NCCN(C)C(=S)Oc1ccc2c3c1O[C@H]1C(=O)CC[C@@]4(O)[C@@H](C2)N(CC2CC2)CC[C@]314` (stereo partly shown) [NPT] (Ac-[ξC][ξA][ξA][ξK](ξF)-X2), the “Percent Degradation, t = 0.5 hr” value in data set [3] (conjugate without pH buffer) is listed as 0.51%; in data set [3] (pH 2), 3.23%; in data set [3] (pH 4) it was 1.67%; in data set [3] (pH 7), 3.22%; in data set [3] (pH 9) it was 4.69%; in data set [3] (pH 12), 5.15%. Besides, the “Percent Degradation, t = 24 hr” value in data set [3] (conjugate without pH buffer) is on record as 2.90%; in data set [3] (pH 2), 4.10%; in data set [3] (pH 4), 2.04%; in data set [3] (pH 7) it was 3.59%; in data set [3] (pH 9), 3.37%; in data set [3] (pH 12), 6.72%. Further, the “stability of the linker” value in data set [3] is reported as “more stable than the carbamate linker”.
Turning to “AcDEVD-pNA: commercially available single enzyme caspase substrate (SEQ ID NO: 7)”, the “cleavage by caspase 8 (absorbance increase)” value in the data set on caspase 8 and trypsin is on record as “cleaved as expected; also recorded: significant absorbance increase over time”.
Regarding “AcIEPD-pNA: commercially available single enzyme caspase substrate (SEQ ID NO: 8) (Ac-IEPD-pNA; SMILES CC[C@H](C)[C@H](NC(C)=O)C(=O)N[C@@H](CCC(=O)O)C(=O)N1CCC[C@H]1C(=O)N[C@@H](CC(=O)O)C(=O)Nc1ccc([N+](=O)[O-])cc1)”, the “cleavage by caspase 8 (absorbance increase)” value with caspase 8 and trypsin is on record as “cleaved as expected; also recorded: significant absorbance increase over time”.

The record behind these values is patent US11879019B2, “Dual-enzyme responsive peptides” (THE REGENTS OF THE UNIVERSITY OF CALIFORNIA, priority 2016, dated 2024).
